Assay results: US20260234209A1

B1: C8-71C_mb7 (designed binder)
chain: MEKKIGPEEILERAKESLERAREASERGDEEEFRKAAEKALELAKRLVEQAKKEGDPELVLEAARVALWVAELAAKNGDKEVFKKAAESALEVAKRLVEVASKEGDPDLVAWAALVALWVAFLAFLNGDKEVFKKAAESALEVAKALMEVAMKVGAPWLVELAIAVARAVWLLAELFGDEEVRRRAEAFEIILRIAAIAVKAWLGGGGSDRRKEMDKVYRTAYKRITSTPDKEKRKEVVKEATEQLRRIAKDEEEKKKAAYMISFLKTLGSLEHHHHHH
B2: C4-71C_mb7 (designed binder)
chain: MGPEEILERARESLERAREASERGDEEEFRKAAEKALELAKRLVEQAKKEGDPWMVMWAALVALWVALLALRNGDKEVFKKAAESALEVAKRLVEVASKEGDPEMVLLAAWVALFVAWLAWLFGDKEVFKKAAESALEVAKRLVEVASKEGDPELVEEAAKVAEEVEKLAEKQGDEEVREKAWETWMEVWLLWLEVRLRKGGGGSDRRKEMDKVYRTAYKRITSTPDKEKRKEVVKEATEQLRRIAKDEEEKKKAAYMISFLKTLGSLEHHHHHH
B3: C2-58-2X_mb7 (designed binder)
chain: MHHHHHHAENLYFQSGSDEELLRELLKLLLKLLEQMGDEEARRVVEELREELEKKGDPRALVLAFALVILVFLLRILRELGDEELVRRVEELWEELLKEGDPQAMMEVFKLVQELQERRGSGSDRRKEMDKVYRTAYKRITSTPDKEKRKEVVKEATEQLRRIAKDEEEKKKAAYMISFLKTLGS
B4: C6-79C_mb7 (designed binder)
chain: MGSSDEEEARELEERAREAAKRAIEAAKRTGDPRVRELAEELVKLAIWAAVEVWLDPSSSDVNEALKLIVEAIEAAVRALEAAERTGDPEVRELARELVRLAVEAAEEVQRNPSSSDVNEALKLIVIAIEAAVRALEAAERTGDPEVRELARELVRLAVEAAEEVQRNPSSEEVNEALRKIIKLILFAVMVLELAEEIGDPTWREMARRAVREAVELAEEVQRDPSGWLGHGSDRRKEMDKVYRTAYKRITSTPDKEKRKEVVKEATEQLRRIAKDEEEKKKAAYMISFLKTLGSLEHHHHHH
B5: C4-71N_mb7 (designed binder)
chain: MGDRRKEMDKVYRTAYKRITSTPDKEKRKEVVKEATEQLRRIAKDEEEKKKAAYMISFLKTLGSPEEILERARESLERAREASERGDEEEFRKAAEKALELAKRLVEQAKKEGDPWMVMWAALVALWVALLALRNGDKEVFKKAAESALEVAKRLVEVASKEGDPEMVLLAAWVALFVAWLAWLFGDKEVFKKAAESALEVAKRLVEVASKEGDPELVEEAAKVAEEVEKLAEKQGDEEVREKAWETWMEVWLLWLEVRLRKGGGGSLEHHHHHH

The binders below were run against human FGFR1c (human), P11362 (assay: cell-based or functional assay).
Chain of human FGFR1c (human), P11362 (P11362 22-822): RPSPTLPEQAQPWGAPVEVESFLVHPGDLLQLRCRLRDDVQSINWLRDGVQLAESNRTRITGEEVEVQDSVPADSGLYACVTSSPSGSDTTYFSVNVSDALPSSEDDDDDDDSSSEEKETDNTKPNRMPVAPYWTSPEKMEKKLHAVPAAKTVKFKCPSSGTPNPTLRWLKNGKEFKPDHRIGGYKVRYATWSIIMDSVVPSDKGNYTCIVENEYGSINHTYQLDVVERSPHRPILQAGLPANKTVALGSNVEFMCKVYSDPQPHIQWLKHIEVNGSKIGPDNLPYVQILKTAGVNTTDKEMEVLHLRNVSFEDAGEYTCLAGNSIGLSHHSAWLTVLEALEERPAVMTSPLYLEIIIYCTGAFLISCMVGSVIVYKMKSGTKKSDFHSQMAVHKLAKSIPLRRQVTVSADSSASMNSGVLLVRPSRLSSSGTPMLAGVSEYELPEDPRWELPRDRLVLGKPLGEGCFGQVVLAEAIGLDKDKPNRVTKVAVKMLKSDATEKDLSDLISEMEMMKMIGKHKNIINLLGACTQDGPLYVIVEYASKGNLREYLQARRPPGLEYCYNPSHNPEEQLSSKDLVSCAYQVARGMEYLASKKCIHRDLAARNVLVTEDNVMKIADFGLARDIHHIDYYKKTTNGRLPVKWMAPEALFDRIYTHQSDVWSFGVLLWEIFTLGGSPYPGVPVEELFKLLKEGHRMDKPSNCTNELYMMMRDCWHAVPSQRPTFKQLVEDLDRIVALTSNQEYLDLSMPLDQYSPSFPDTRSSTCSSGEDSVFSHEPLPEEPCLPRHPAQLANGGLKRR

| EC50 of ERK1/2 phosphorylation (phosphoflow) in CHO-R1c cells [nM] | EC50 of intracellular calcium release in CHO-R1c cells [nM] | EC50 of ERK phosphorylation (phosphoflow), C4-71N mb7 extension series [nM] | Binder |
| --- | --- | --- | --- |
| 2.07 | 3.09 |  | B1 |
| 1.33 | 0.72 |  | B2 |
| 0.63 | 26 |  | B3 |
| 1.56 | 0.38 |  | B4 |
| 0.89 |  | 1.3 | B5 |
